The data set addresses T1, RIG-I (UniProt O95786 1-925).
T1 sequence: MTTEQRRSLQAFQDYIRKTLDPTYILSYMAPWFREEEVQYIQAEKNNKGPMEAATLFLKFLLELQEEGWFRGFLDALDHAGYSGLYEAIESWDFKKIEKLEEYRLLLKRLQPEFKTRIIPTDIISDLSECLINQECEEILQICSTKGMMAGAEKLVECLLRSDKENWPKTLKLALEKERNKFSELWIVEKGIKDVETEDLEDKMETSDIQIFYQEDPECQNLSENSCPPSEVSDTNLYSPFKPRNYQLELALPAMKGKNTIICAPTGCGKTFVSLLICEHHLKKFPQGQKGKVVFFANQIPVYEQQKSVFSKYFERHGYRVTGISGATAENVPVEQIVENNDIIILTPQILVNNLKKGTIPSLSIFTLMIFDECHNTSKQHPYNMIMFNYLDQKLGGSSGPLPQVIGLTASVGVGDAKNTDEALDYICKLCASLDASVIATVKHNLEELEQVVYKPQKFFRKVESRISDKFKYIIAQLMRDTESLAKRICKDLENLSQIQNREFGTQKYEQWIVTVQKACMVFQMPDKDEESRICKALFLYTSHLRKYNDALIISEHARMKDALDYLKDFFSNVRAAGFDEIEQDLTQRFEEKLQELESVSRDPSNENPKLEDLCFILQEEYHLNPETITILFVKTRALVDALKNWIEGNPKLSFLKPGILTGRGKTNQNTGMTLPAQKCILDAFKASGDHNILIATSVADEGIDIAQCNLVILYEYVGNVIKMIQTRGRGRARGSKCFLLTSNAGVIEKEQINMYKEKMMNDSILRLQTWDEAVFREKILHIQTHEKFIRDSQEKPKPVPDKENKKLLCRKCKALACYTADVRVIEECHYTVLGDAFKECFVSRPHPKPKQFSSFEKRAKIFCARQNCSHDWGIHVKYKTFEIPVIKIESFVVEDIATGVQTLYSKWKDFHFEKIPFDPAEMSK
In words: competition (fluorescence polarization); 0.5 mM ATP; vs labeled 5' PPP ds39; 50 mM MOPS pH 7.4, 5 mM DTT, 5 mM MgCl2, 0.01% Tween20; 25 C (ATPase, 2 mM ATP; FP, 0.5 mM ATP); EMSA 4 C with 2 mM ATP, 75 nM RIG-I, 25 nM RNA. Conditions: protein: recombinant; tags: none (6xHis-SUMO removed by Ulp1); label: none; single-stranded. Background: Mobility shift assays separate free from complexed probe on a gel.

B1: 5' PPP ss39 (ssRNA)
RNA: AGUUGGUGGUUGUUGUGUGUUUGUGGUUGGUUUGUUUGG
modifications: 5' triphosphate
On to B1, for which the binding result is “no binding”.

B2: 5' NAD+ ss39 (ssRNA)
RNA: AGUUGGUGGUUGUUGUGUGUUUGUGGUUGGUUUGUUUGG
modifications: 5' NAD+ cap
Consider B2, for which the binding result is given as “no binding”.

(Values after PMC10450190, “RIG-I recognizes metabolite-capped RNAs as signaling ligands”.)
